# Reference: patent US20240261427A1, “LINKERS, DRUG LINKERS AND CONJUGATES THEREOF AND METHODS OF USING THE SAME” (ProfoundBio US Co., priority 2021, published 2024)
# Tested on: Hela cells
# Experiment: Flow cytometry binding to Hela cells
# Type: cell-based, human
# Conditions: transfection supernatant, FIG. 6
# Procedure: The binding activity of the antibodies to Hela cells (ATCC® CCL-2, provided by COBIOER) and to RPTEC/TERT1 cells (ATCC® CRL-4031, provided by COBIOER) was tested by flow cytometry using the transfection supernatants. Briefly, target cells were digested with 0.02% EDTA-2Na, centrifuged at 1500 rpm for 3 mins, and resuspended with PBS. After counting, the cells were added to a 1.5 ml centrifuge tube with 1×10^6 cells per tube, centrifuged at 1500 rpm for 5 minutes, and the supernatant was discarded. Then all the operations were carried out on an ice bath. 100 μL of transfection supernatant was added to each 1.5 ml centrifuge tube. Blank cells, blank cells plus secondary antibody, medium and HEK293 supernatant were set up as the controls. The reaction was performed on an ice bath for 1 hour. Then the cells were pelleted and washed twice with PBS. The secondary antibody, goat anti-Human IgG (PE, abcam, ab98596), was diluted (1:200) and added using 100 μL per tube. The reaction was performed on an ice bath for 1 hour in the dark. The cells were pelleted again and washed twice with PBS, resuspended in 300 μL PBS, and FL2 fluorescence readings were measured by cytometry. The results were analyzed by FlowJo™10 software.
# Anti-FOLR1 antibody binding to Hela and RPTEC/TERT1 cells was tested by FACS. The study was carried out as described above. […]
molecule,measurement,value
"F40: anti-FOLR1 antibody clone; ""Clone F40 has a different HCDRs and LCDRs, and with different HFR and LFR"" (antibody, V domains shown) VH: EVQLLESGGGVVQPGRSLRLSCAASGFTFSSYAMHWVRQAPGKGLEWVAVISYDGSNKYYADSVKGRFIISRDNSKNTVYLQMNSLRAEDTAVYYCARPTYVFTYTGSSFDYWGQGTQVTVSS VL: DIQVTQSPSSLSASLGDTVSITCRASRGLTDSVAWYQQKPGQAPKLLIYAASTLQSGVPSRFGGSGSGSYFTLTITSLQPEDVATYYCQNYKSAPWTFGQGTKVEIK",Hela cell binding,weakly positive
